Article PMC10462681

How the values were obtained:
[1] = molecular target: LRP4-HA mutant p.Tyr607Cys (c.1820A > G; LRP4-Mut), expressed in HEK293T cells (human) (UniProt O75096)
[2] = molecular target: LRP4-HA mutant p.Tyr607Cys (c.1820A > G; LRP4-Mut), expressed in HEK293T cells (human) (UniProt O75096); test: pull-down; LRP4-HA (wild-type or mutated) from transfected HEK293T cells immobilised on beads with anti-HA antibody, incubated with or without recombinant agrin (1 µg/mL); western blot with anti-agrin antibody; N = 3 blots

MuSK phosphorylation (anti-4G10 blot of immunoprecipitated MuSK-Flag) induced by agrin (0.4 µg/ml; 1, 3 and 6 h) in HEK293T cells expressing MuSK-Flag and mutant LRP4-HA, against wild-type LRP4-HA [1]: 40 % decrease | percent decrease of binding against wild-type LRP4 [2]: 80%
Substance: recombinant rat agrin (neural agrin) (from UniProt P25304 1-1959) (ligand)
